Assay results published in PMC2879411, “Molecular Basis for the Dual Function of Eps8 on Actin Dynamics: Bundling and Capping” (PLoS Biology, 2010).

Target: monomeric actin (CaATP-G-actin) from rabbit muscle, unlabelled (rabbit, UniProt P68135 1-377)
Test: cell-based or functional assay

Kd from inhibition of barbed end growth (spectrin-actin seeds): 40 µM
Kd from inhibition of pointed end growth (gelsolin-actin seeds): 32 µM
Binder: VCPEGARVFNQITVQKAALEDSNG [Eps8 isolated predicted helix H5 (residues 765–788)]
